Assay results reported in article PMC4995097, “Talin-KANK1 interaction controls the recruitment of cortical microtubule stabilizing complexes to focal adhesions” (eLife, 2016).

Assays:
[1] = system: talin1 / talin2 (HEK293T cells); assay: Streptavidin pull down of Bio-GFP-KANK1 combined with mass spectrometry; type: binding, human
Experimental: Streptavidin-based pull down assays of biotinylated proteins expressed using pBioGFP-C1 constructs transfected in HEK293T cells was performed and analyzed as previously described ([van der Vaart et al., 2013]). For mass spectrometry sample preparation, streptavidin beads resulting from pull-downs assays were ran on a 12% Bis-Tris 1D SDS-PAGE gel (Biorad) for 1 cm and stained with colloidal coomassie dye G-250 (Gel Code Blue Stain Reagent, Thermo Scientific). The lane was cut and treated with 6.5 mM dithiothreitol (DTT) for 1 hr at 60°C for reduction and 54 mM iodoacetamide for 30 min for alkylation. The proteins were digested overnight with trypsin (Promega) at 37°C. The peptides were extracted with 100% acetonitrile (ACN) and dried in a vacuum concentrator. For RP-nanoLC-MS/MS, samples were resuspended in 10% formic acid (FA) / 5% DMSO and was analyzed using a Proxeon Easy-nLC100 (Thermo Scientific) connected to an Orbitrap Q-Exactive mass spectrometer. Samples were first trapped (Dr Maisch Reprosil C18, 3 μm, 2 cm × 100 μm) before being separated on an analytical column (Agilent Zorbax 1.8 μm SB-C18, 40 cm × 50 μm), using a gradient of 180 min at a column flow of 150 nl min^-1. […]

[2] = system: microtubule plus ends in HeLa cells; assay: Ratio of microtubule growth rate in the cell center and at the cell edge; type: cell-based, human; conditions: depletion and rescue, EB3-mRFP
Experimental: (§1) nEB3-mRFP dynamics was recorded by 0.5 s interval time lapse TIRF imaging. Microtubule growth was measured using kymographs obtained from EB3-mRFP time lapse image series, plotted and presented as previously described ([van der Vaart et al., 2013]). Ratio of microtubule growth in cell center to periphery was obtained as values for individual cells. Microtubule growth trajectory angle to the cell edge was manually measured in ImageJ using tracks obtained by maximum intensity projection of EB3-mRFP image series.

[3] = system: microtubule plus ends in HeLa cells; assay: Angles of microtubule growth relative to the cell margin; type: cell-based, human; conditions: KANK1/2-depleted HeLa rescued, majority of microtubules at the cell margin
Experimental: as §1

B1: KANK1: full-length KANK1, BioGFP- or GFP-tagged; siRNA-resistant version for rescue (protein)
chain: MAHTTKVNGSASGKAGDILSGDQDKEQKDPYFVETPYGYQLDLDFLKYVDDIQKGNTIKRLNIQKRRKPSVPCPEPRTTSGQQGIWTSTESLSSSNSDDNKQCPNFLIARSQVTSTPISKPPPPLETSLPFLTIPENRQLPPPSPQLPKHNLHVTKTLMETRRRLEQERATMQMTPGEFRRPRLASFGGMGTTSSLPSFVGSGNHNPAKHQLQNGYQGNGDYGSYAPAAPTTSSMGSSIRHSPLSSGISTPVTNVSPMHLQHIREQMAIALKRLKELEEQVRTIPVLQVKISVLQEEKRQLVSQLKNQRAASQINVCGVRKRSYSAGNASQLEQLSRARRSGGELYIDYEEEEMETVEQSTQRIKEFRQLTADMQALEQKIQDSSCEASSELRENGECRSVAVGAEENMNDIVVYHRGSRSCKDAAVGTLVEMRNCGVSVTEAMLGVMTEADKEIELQQQTIESLKEKIYRLEVQLRETTHDREMTKLKQELQAAGSRKKVDKATMAQPLVFSKVVEAVVQTRDQMVGSHMDLVDTCVGTSVETNSVGISCQPECKNKVVGPELPMNWWIVKERVEMHDRCAGRSVEMCDKSVSVEVSVCETGSNTEESVNDLTLLKTNLNLKEVRSIGCGDCSVDVTVCSPKECASRGVNTEAVSQVEAAVMAVPRTADQDTSTDLEQVHQFTNTETATLIESCTNTCLSTLDKQTSTQTVETRTVAVGEGRVKDINSSTKTRSIGVGTLLSGHSGFDRPSAVKTKESGVGQININDNYLVGLKMRTIACGPPQLTVGLTASRRSVGVGDDPVGESLENPQPQAPLGMMTGLDHYIERIQKLLAEQQTLLAENYSELAEAFGEPHSQMGSLNSQLISTLSSINSVMKSASTEELRNPDFQKTSLGKITGNYLGYTCKCGGLQSGSPLSSQTSQPEQEVGTSEGKPISSLDAFPTQEGTLSPVNLTDDQIAAGLYACTNNESTLKSIMKKKDGNKDSNGAKKNLQFVGINGGYETTSSDDSSSDESSSSESDDECDVIEYPLEEEEEEEDEDTRGMAEGHHAVNIEGLKSARVEDEMQVQECEPEKVEIRERYELSEKMLSACNLLKNTINDPKALTSKDMRFCLNTLQHEWFRVSSQKSAIPAMVGDYIAAFEAISPDVLRYVINLADGNGNTALHYSVSHSNFEIVKLLLDADVCNVDHQNKAGYTPIMLAALAAVEAEKDMRIVEELFGCGDVNAKASQAGQTALMLAVSHGRIDMVKGLLACGADVNIQDDEGSTALMCASEHGHVEIVKLLLAQPGCNGHLEDNDGSTALSIALEAGHKDIAVLLYAHVNFAKAQSPGTPRLGRKTSPGPTHRGSFD
modifications: biotinylated on the Bio tag (by BirA); left off: biotinylation (Bio) tag, end not stated, kept | GFP, end not stated, kept
notes: full-length KANK1, BioGFP- or GFP-tagged; siRNA-resistant version for rescue
B1 was tested, and the “binding partner found by mass spectrometry: talin1 (in words)” value [1] was “we identified talin1 among the strongest hits”, the “microtubule growth, fold slower at cell margin/edge than in cell center” value [2] was roughly 2.5 fold and the “angle of microtubule growth to the cell edge” value [3] was 60–80 °.
